From the supplement of paper PMC7877785
± gives the uncertainty stated by the source.

Test: self-splicing fitness, log relative to wild type (ln ratio); higher = more splicing; Tetrahymena group I intron in knt gene, E. coli kanamycin selection, DiMSum; sequences stand for … in CUCUCU…GGAGGGAAAAGUUAUCAGGCAUGCACCUGGUAGCUAGUCUUUAAACCAAUAGAUUGCAUCGGUUUAAAAGGCAAGACCGUCAAAUUGCGGGAAAGGGGUCAACAGCCGUUCAGUACCAAGUCUCAGGGGAAACUUUGAGAUGGCCUUGCAAAGGGUAUGGUAAUAAGCUGACGGACAUGGUCCUAACCACGCAGCCAAGUCCUAAGUCAACAGAUCUUCUGUUGAUAUGGAUGCAGUUCACAGACUAAAUGUCGGUCGGGGAAGAUGUAUUCUUCUCAUAAGAUAUAGUCGGACCUCUCCUUAAUGGGAGCUAGCGGAUGAAGUGAUGCAACACUGGAGCCGCUGGGAACUAAUUUGUAUGCGAAAGUAUAUUGAUUAGUUUUGGAGUACUCGUGGUCG
Outline: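 Pooled colonies went to amplicon sequencing on an Illumina HiSeq 2500 after six replicate transformations. The plates were LB agar with 100 μg/mL carbenicillin, 50 μM IPTG and 0.2% rhamnose, with or without 25 μg/mL kanamycin, incubated overnight at 37°C or 30°C. The E. coli BL21(DE3) library had all eight P1ex-region intron nucleotides randomised, the intron placed in the knt kanamycin-resistance gene on pET-22b(+). DiMSum fitness is the error-weighted combination of replicate fold changes, kanamycin against none, normalised to wild type.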

Row | Sequence | self-splicing fitness (ln) (30 °C) | self-splicing fitness (ln) (37 °C)
1 | CCGCAGCAAUAUUACGCCAC | -3.33 ± 0.29 | -1.81 ± 0.28
2 | CCAGAGCAAUAUUACGCGUC | -3.45 ± 0.24 | -3 ± 0.3
3 | GCCUAGCAAUAUUACGGCAA | -2.64 ± 0.15 | -1.75 ± 0.14
4 | AAUUAGCAAUAUUACGGGUU | -1.4 ± 0.12 | -0.955 ± 0.12
5 | AUGCAGCAAUAUUACGGUAC | -2.35 ± 0.095 | -1.52 ± 0.14
6 | UUCUAGCAAUAUUACGCGAC | -1.97 ± 0.38 | –
7 | UUUAAGCAAUAUUACGCACC | -2.05 ± 0.21 | -0.66 ± 0.22
8 | AAAUAGCAAUAUUACGUCAA | -2.07 ± 0.17 | -1.8 ± 0.18
9 | CGGCAGCAAUAUUACGGGAA | -2.49 ± 0.15 | -1.97 ± 0.16
10 | AGAGAGCAAUAUUACGAACA | -2.8 ± 0.36 | -2.84 ± 0.31
11 | UAGAAGCAAUAUUACGUUCG | -0.157 ± 0.067 | 0.264 ± 0.088
12 | GAUCAGCAAUAUUACGUAAA | -0.582 ± 0.079 | 0.169 ± 0.099
13 | UCUCAGCAAUAUUACGUAUG | -2.86 ± 0.42 | -2.79 ± 0.38
14 | CAUGAGCAAUAUUACGACUC | -3.85 ± 0.3 | -3.38 ± 0.39
15 | UUGAAGCAAUAUUACGACUC | -1.26 ± 0.079 | -0.526 ± 0.11
16 | CGCCAGCAAUAUUACGGCUA | -0.576 ± 0.061 | -0.172 ± 0.068
17 | UCCGAGCAAUAUUACGCUCG | -3.71 ± 0.21 | -3.08 ± 0.37
18 | GCAAAGCAAUAUUACGCAAG | -3.95 ± 0.19 | -2.22 ± 0.14
19 | AUGCAGCAAUAUUACGCGUU | -2.4 ± 0.088 | -2.7 ± 0.19
20 | UUUCAGCAAUAUUACGUUGU | -3.23 ± 0.21 | -2.06 ± 0.15
21 | UCUAAGCAAUAUUACGCCCU | -2.09 ± 0.24 | -1.78 ± 0.25
22 | CCGGAGCAAUAUUACGCACC | -1.27 ± 0.38 | –
23 | CUCGAGCAAUAUUACGUGGG | -3.08 ± 0.14 | -2.88 ± 0.2
24 | GUUGAGCAAUAUUACGGAAU | -3.08 ± 0.31 | –
25 | UCCUAGCAAUAUUACGGAGA | -0.637 ± 0.072 | -0.626 ± 0.079

Row | Sequence | self-splicing fitness (ln) (30 °C) | self-splicing fitness (ln) (37 °C)
26 | CAGUAGCAAUAUUACGUACA | -1.46 ± 0.14 | -1.83 ± 0.16
27 | GGUGAGCAAUAUUACGAGCG | -0.194 ± 0.11 | 0.303 ± 0.14
28 | GCGGAGCAAUAUUACGGCGG | -3.3 ± 0.3 | -2.6 ± 0.32
29 | CAGGAGCAAUAUUACGUAUG | -2.27 ± 0.082 | -1.5 ± 0.11
30 | AUGGAGCAAUAUUACGGGGG | -3.55 ± 0.43 | -2.21 ± 0.35
31 | UUCGAGCAAUAUUACGAGUG | -1.81 ± 0.17 | -0.223 ± 0.15
32 | GAAAAGCAAUAUUACGCUUG | -1.72 ± 0.13 | -0.918 ± 0.14
33 | AUGGAGCAAUAUUACGCGUU | -3.93 ± 0.21 | -3.05 ± 0.24
34 | GCCUAGCAAUAUUACGGUUU | -0.729 ± 0.05 | -0.56 ± 0.062
35 | CUUCAGCAAUAUUACGGGUA | -3.12 ± 0.22 | -3.74 ± 0.28
36 | GGGCAGCAAUAUUACGUCAA | 0.3 ± 0.08 | 0.285 ± 0.088
37 | ACCAAGCAAUAUUACGUAGU | -2.49 ± 0.078 | -1.75 ± 0.088
38 | CCCGAGCAAUAUUACGAACU | – | -1.58 ± 0.39
39 | GCACAGCAAUAUUACGAUAA | -1.31 ± 0.07 | -0.957 ± 0.096
40 | UGAGAGCAAUAUUACGCAAA | – | -0.61 ± 0.36
41 | GUUCAGCAAUAUUACGGCAC | -0.46 ± 0.21 | 0.473 ± 0.24
42 | CAAGAGCAAUAUUACGUGAC | – | -3.01 ± 0.18
43 | AUUGAGCAAUAUUACGGAAG | – | -2.63 ± 0.32
44 | AACUAGCAAUAUUACGGACG | -1.21 ± 0.06 | -0.904 ± 0.072
45 | GCAAAGCAAUAUUACGGCAG | -3.61 ± 0.22 | -2.81 ± 0.31
46 | AACAAGCAAUAUUACGCUGA | -1.34 ± 0.087 | -1.01 ± 0.11
47 | UAUGAGCAAUAUUACGCAGG | -2.59 ± 0.26 | -2.34 ± 0.22
48 | ACAGAGCAAUAUUACGUGCA | -3.73 ± 0.29 | -1.57 ± 0.25
49 | UUAAAGCAAUAUUACGAGAG | -0.988 ± 0.061 | -0.259 ± 0.11
50 | GCUAAGCAAUAUUACGAACA | -1.65 ± 0.2 | -0.907 ± 0.27
